In patent US11278600B2, “Human alpha-galactosidase variants” (Codexis, Inc., priority 2014, dated 2022):
Positions count from the first letter of the chain named.

Columns and labels:
Assay type in all cases: biochemical
[1] = HTP-analysis of supernatants pretreated with base (MUGal hydrolysis); conditions: challenge at pH 7.1; activity of the variant/activity of WT GLA (SEQ ID NO: 5); yeast supernatant
Procedure, shortened: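 GLA variants secreted from yeast INVSc1; culture supernatants pre-incubated with McIlvaine buffer pH 7.0–8.2 or 200 mM bicarbonate pH 9.1–9.7 at 37° C. for 1–18 h. Residual activity: MUGal (4 mM stock) hydrolysis at pH 4.3–4.8, 37° C., 30–180 min, carbonate quench; fluorescence Ex 355/Em 448 nm.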

[2] = HTP-analysis of supernatants pretreated with acid (MUGal hydrolysis); conditions: challenge at pH 4.2; activity of the variant/activity of WT GLA (SEQ ID NO: 5); yeast supernatant
Procedure, shortened: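 Fluorescence of MUGal hydrolysis (Ex. 355 nm, Em. 448 nm) is read after sodium carbonate quench. The enzyme source is INVSc1 yeast culture supernatant, first exposed to pH 3.3-4.3 McIlvaine buffer at 37° C. for 1-3 h, then reacted at pH 4.8 for 30-180 minutes.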

[3] = HTP-analysis of yeast culture supernatants, no challenge (MUGal hydrolysis); conditions: activity of the variant/activity of WT GLA (SEQ ID NO: 5), yeast supernatant
Procedure, shortened: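 GLA variants expressed in yeast INVSc1, secreted into SD-Ura broth over 66-84 h at 30° C; clarified supernatants tested without challenge. Supernatant mixed with McIlvaine buffer pH 4.8 and 2 mM MUGal (citrate/KCl, pH 4.6), 37° C for 30-180 min, carbonate-quenched, fluorescence Ex 355/Em 448 nm.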

B1: 58 (protein)
chain: LDNGLARTPTMGWLHWERFMCNLDCQEEPDSCISEKLFMEMAELMVSEGWKDAGYEYLCIDDCWMAPQRDSEGRLQADPQRFPHGIRQLANYVHSKGLKLGIYADVGNKTCAGFPGSFGYYDIDAQTFADWGVDLLKFDGCYCDSLENLADGYKHMSLALNRTGRSIVYSCEWPLYMWPFQKPNYTEIRQYCNHWRNFADIDDSWKSIKSILDWTSFNQERIVDVAGPGGWNDPDMLVIGNFGLSWNQQVTQMALWAIMAAPLFMSNDLRHISPQAKALLQDKDVIAINQDPLGKQGYQLRQGDNFEVWERPLSGLAWAVAMINRQEIGGPRSYTIAVASLGKGVACNPACFITQLLPVKRKLGLYEWTSRLRSHINPTGTVLLQLENTMQMSKDLLL
modifications: Synthetic Polypeptide sequence of Variant No. 58 of mature Human GLA
Question: Which “Relative Activity of GLA Variants After Challenge at pH 7.1” value (from here on “Relative Activity … at pH 7.1”) [1] does the source give for B1 here?
Answer: The value was “++ (++ = >1.5 to 2.5 relative activity over WT GLA (SEQ ID NO: 5))”.

Question: What about the “Relative Activity of GLA Variants After Challenge at pH 4.2” value (“Relative Activity … at pH 4.2” below) [2] of the same molecule?
Answer: The value was “++ (++ = >1.5 to 2.5 relative activity over WT GLA (SEQ ID NO: 5))”.

Question: What about the “Relative Activity of GLA Variants After No Challenge (NC)” value [3] of the same molecule?
Answer: The value was “++ (++ = >1.5 to 2.5 relative activity over WT GLA (SEQ ID NO: 5))”.

B2: 62 (protein)
chain: B1 chain with G303Q, L365F, R373V
modifications: Synthetic Polypeptide sequence of Variant No. 62 of mature Human GLA
Question: For B2, which “Relative Activity … at pH 7.1” value [1] is on record?
Answer: Its value is “++ (++ = >1.5 to 2.5 relative activity over WT GLA (SEQ ID NO: 5))”.

Question: And the “Relative Activity … at pH 4.2” value [2]?
Answer: Its value is “+ (+ = 0.5 to 1.5 relative activity over WT GLA (SEQ ID NO: 5))”.

Question: What about the “Relative Activity of GLA Variants After No Challenge (NC)” value [3] of the same molecule?
Answer: The value was “++ (++ = >1.5 to 2.5 relative activity over WT GLA (SEQ ID NO: 5))”.

B3: 59 (protein)
chain: B1 chain with L365R
modifications: Synthetic Polypeptide sequence of Variant No. 59 of mature Human GLA
Question: Which “Relative Activity … at pH 7.1” value [1] does the source give for B3 here?
Answer: Its value is “+ (+ = 0.5 to 1.5 relative activity over WT GLA (SEQ ID NO: 5))”.

Question: What about the “Relative Activity … at pH 4.2” value [2] of the same molecule?
Answer: The value was “+ (+ = 0.5 to 1.5 relative activity over WT GLA (SEQ ID NO: 5))”.

Question: What about the “Relative Activity of GLA Variants After No Challenge (NC)” value [3] of the same molecule?
Answer: The value was “+ (+ = 0.5 to 1.5 relative activity over WT GLA (SEQ ID NO: 5))”.

B4: 61 (protein)
chain: B1 chain with L365V
modifications: Synthetic Polypeptide sequence of Variant No. 61 of mature Human GLA
Question: For B4, which “Relative Activity … at pH 7.1” value [1] is on record?
Answer: Its value is “++ (++ = >1.5 to 2.5 relative activity over WT GLA (SEQ ID NO: 5))”.

Question: What about the “Relative Activity … at pH 4.2” value [2] of the same molecule?
Answer: The value was “++ (++ = >1.5 to 2.5 relative activity over WT GLA (SEQ ID NO: 5))”.

Question: And the “Relative Activity of GLA Variants After No Challenge (NC)” value [3]?
Answer: The value was “++ (++ = >1.5 to 2.5 relative activity over WT GLA (SEQ ID NO: 5))”.

B5: 60 (protein)
chain: B1 chain with L365T
modifications: Synthetic Polypeptide sequence of Variant No. 60 of mature Human GLA
Question: For B5, which “Relative Activity … at pH 7.1” value [1] is on record?
Answer: Its value is “+ (+ = 0.5 to 1.5 relative activity over WT GLA (SEQ ID NO: 5))”.

Question: And the “Relative Activity … at pH 4.2” value [2]?
Answer: Its value is “+ (+ = 0.5 to 1.5 relative activity over WT GLA (SEQ ID NO: 5))”.

Question: What about the “Relative Activity of GLA Variants After No Challenge (NC)” value [3] of the same molecule?
Answer: Its value is “+ (+ = 0.5 to 1.5 relative activity over WT GLA (SEQ ID NO: 5))”.

B6: 63 (protein)
chain: B1 chain with H155A, L365F
modifications: Synthetic Polypeptide sequence of Variant No. 63 of mature Human GLA
Question: Which results are given for B6?
Answer: Relative Activity of GLA Variants After Challenge at pH 7.1 [1]: ++ (++ = >1.5 to 2.5 relative activity over WT GLA (SEQ ID NO: 5)); Relative Activity of GLA Variants After Challenge at pH 4.2 [2]: + (+ = 0.5 to 1.5 relative activity over WT GLA (SEQ ID NO: 5)); Relative Activity of GLA Variants After No Challenge (NC) [3]: + (+ = 0.5 to 1.5 relative activity over WT GLA (SEQ ID NO: 5))
